In patent US20150284477:
Changes are numbered by the printed parent chain. Names and notes keep the numbering of the source.

What was measured:
[1] = biological target: T1, LPETG (SEQ ID NO: 4) substrate (not fully specified)
T1 chain: LPETG

[2] = biological target: T2, LAETG motif-bearing substrate (not fully specified)
T2 chain: LAETG

[3] = biological target: LPESG motif-bearing substrate
[4] = biological target: T3, GGG-COOH
T3 chain: GGG

B1: sortase 2A.3.5 (protein)
chain: QAKPQIPKDKSKVAGYIEIPDADIKEPVYPGPATREQLNRGVSFAEENESLDDQNISIAGHTFIDRPNYQFTNLKAAKKGSMVYFKVGNETRKYKMTSIRNVRPTAVEILDEQKGKDKQLTLFTCDDYNEETGVWETRKIFVATEVK
B1 was tested. Which Km, LxExG (uM); column 2A.3.5/wt [1] did it give?
Its Km, LxExG (uM); column 2A.3.5/wt is 4110 µM.

What about the Km, LxExG (uM); column 2A.3.5/2A [2] of the same protein?
The Km, LxExG (uM); column 2A.3.5/2A was 7160 µM.

B2: sortase 4S.5 (protein)
chain: B1 chain with N39D, A45V, A59T, F63A, K75R, R103K, I109V, F123V
How did the Km, LxExG (uM); column 4S.5/wt [1] turn out when B2 was run?
The Km, LxExG (uM); column 4S.5/wt was 12.2 µM.

And the Km, LxExG (uM); column 4S.5/4S [3]?
The Km, LxExG (uM); column 4S.5/4S was 76 µM.

And the Km, GGG (uM); column 4S.5/4S [4]?
Its Km, GGG (uM); column 4S.5/4S is 26700 µM.

B3: sortase 4S.3.5 (protein)
chain: B1 chain with A45T, A59T, R103K, I109V, F123V
How did the Km, LxExG (uM); column 4S.3.5/4S [3] turn out when B3 was run?
Its Km, LxExG (uM); column 4S.3.5/4S is 7310 µM.

B4: sortase 4S.4 (protein)
chain: B1 chain with A45V, A59T, F63S, R103K, I109V, F123V
Which results are given for B4?
Km, LxExG (uM); column 4S.4/wt [1]: 339 µM; Km, LxExG (uM); column 4S.4/4S [3]: 1410 µM

B5: sortase 2A.5 (protein)
chain: B1 chain with R40H, A45H, K79I, I109V, F123V
For B5, which Km, LxExG (uM); column 2A.5/wt [1] is on record?
The Km, LxExG (uM); column 2A.5/wt was 4900 µM.

What about the Km, LxExG (uM); column 2A.5/2A [2] of the same protein?
The Km, LxExG (uM); column 2A.5/2A was 433 µM.

What about the Km, GGG (uM); column 2A.5/2A [4] of the same protein?
Its Km, GGG (uM); column 2A.5/2A is 2810 µM.

B6: sortase 4S.6B (protein)
chain: B1 chain with N39D, A45V, A59S, F63A, K75P, R103K, I109V, F123V, E130P
With B6 as the protein, how does the Km, LxExG (uM); column 4S.6B/wt [1] read?
Its Km, LxExG (uM); column 4S.6B/wt is 238 µM.

What about the Km, LxExG (uM); column 4S.6B/4S [3] of the same protein?
Its Km, LxExG (uM); column 4S.6B/4S is 312 µM.

And the Km, GGG (uM); column 4S.6B/4S [4]?
Its Km, GGG (uM); column 4S.6B/4S is 15700 µM.

B7: sortase 4S.6C (protein)
chain: B1 chain with N39D, A45V, A59T, F63A, K75R, R103K, I109V, F123V, E130F
B7 was tested. Which Km, LxExG (uM); column 4S.6C/wt [1] did it give?
Its Km, LxExG (uM); column 4S.6C/wt is 16.1 µM.

And the Km, LxExG (uM); column 4S.6C/4S [3]?
The Km, LxExG (uM); column 4S.6C/4S was 156 µM.

What about the Km, GGG (uM); column 4S.6C/4S [4] of the same protein?
The Km, GGG (uM); column 4S.6C/4S was 36000 µM.

B8: sortase 2A.4 (protein)
chain: B1 chain with A45H, F123V
For B8, which Km, LxExG (uM); column 2A.4/wt [1] is on record?
Its Km, LxExG (uM); column 2A.4/wt is 11700 µM.

And the Km, LxExG (uM); column 2A.4/2A [2]?
Its Km, LxExG (uM); column 2A.4/2A is 3250 µM.

B9: sortase 2A.6A (protein)
chain: B1 chain with A45H, K79V, I109V, F123V
For B9, which Km, LxExG (uM); column 2A.6A/wt [1] is on record?
Its Km, LxExG (uM); column 2A.6A/wt is 3290 µM.

What about the Km, LxExG (uM); column 2A.6A/2A [2] of the same protein?
Its Km, LxExG (uM); column 2A.6A/2A is 608 µM.

And the Km, GGG (uM); column 2A.6A/2A [4]?
The Km, GGG (uM); column 2A.6A/2A was 1040 µM.

B10: sortase 4S.6A (protein)
chain: B1 chain with N39D, A45V, A59T, F63A, K75G, R103K, I109V, F123V, E130V
With B10 as the protein, how does the Km, LxExG (uM); column 4S.6A/wt [1] read?
Its Km, LxExG (uM); column 4S.6A/wt is 1290 µM.

And the Km, LxExG (uM); column 4S.6A/4S [3]?
Its Km, LxExG (uM); column 4S.6A/4S is 102 µM.

What about the Km, GGG (uM); column 4S.6A/4S [4] of the same protein?
The Km, GGG (uM); column 4S.6A/4S was 4950 µM.

B11: sortase 2A.6B (protein)
chain: B1 chain with R40K, A45H, K79V, N101K, I109V, F123V
How did the Km, LxExG (uM); column 2A.6B/2A [2] turn out when B11 was run?
The Km, LxExG (uM); column 2A.6B/2A was 310 µM.

What about the Km, GGG (uM); column 2A.6B/2A [4] of the same protein?
Its Km, GGG (uM); column 2A.6B/2A is 642 µM.

B12: sortase 2A.6C (protein)
chain: B1 chain with A45H, K79P, K93I, N101K, I109V, F123V
How did the Km, LxExG (uM); column 2A.6C/wt [1] turn out when B12 was run?
The Km, LxExG (uM); column 2A.6C/wt was 1980 µM.

And the Km, LxExG (uM); column 2A.6C/2A [2]?
Its Km, LxExG (uM); column 2A.6C/2A is 343 µM.

What about the Km, GGG (uM); column 2A.6C/2A [4] of the same protein?
The Km, GGG (uM); column 2A.6C/2A was 642 µM.

B13: P94S/D160N/K196T (protein)
chain: MQAKPQIPKDKSKVAGYIEIPDADIKEPVYPGPATSEQLNRGVSFAEENESLDDQNISIAGHTFIDRPNYQFTNLKAAKKGSMVYFKVGNETRKYKMTSIRNVKPTDVEVLDEQKGKDKQLTLITCDDYNEKTGVWETRKIFVATEVKLEHHHHHH
How did the Km LPETG [1] turn out when B13 was run?
The Km LPETG was 560 µM.

What about the Km GGG-COOH [4] of the same protein?
Its Km GGG-COOH is 1830 ± 330 µM.

B14: srtA P94S (protein)
chain: B13 chain with N102D, T138K
Which Km LPETG [1] does the source give for B14 here?
Its Km LPETG is 2500 µM.

What about the Km GGG-COOH [4] of the same protein?
Its Km GGG-COOH is 650 µM.

B15: wild type S. aureus sortase A (truncated, His tagged) (protein)
chain: B13 chain with S36P, N102D, T138K
Which Km LPETG [1] does the source give for B15 here?
The Km LPETG was 7600 µM.

And the Km, LxExG (uM); column wt/wt [1]?
The Km, LxExG (uM); column wt/wt was 5180 µM.

What about the Km GGG-COOH [4] of the same protein?
Its Km GGG-COOH is 140 µM.

What about the Km, GGG (uM); column wt/wt [4] of the same protein?
The Km, GGG (uM); column wt/wt was 291 µM.

B16: P94S/D160N/D165A (protein)
chain: B13 chain with D107A, T138K
What does the source list for B16?
Km LPETG [1]: 510 µM; Km GGG-COOH [4]: 1750 ± 250 µM

B17: srtA D165A (protein)
chain: B13 chain with S36P, N102D, D107A, T138K
Which results are given for B17?
Km LPETG [1]: 3600 µM; Km GGG-COOH [4]: 1000 ± 480 µM

B18: srtA K196T (protein)
chain: B13 chain with S36P, N102D
How did the Km LPETG [1] turn out when B18 was run?
Its Km LPETG is 3300 µM.

And the Km GGG-COOH [4]?
Its Km GGG-COOH is 200 µM.

B19: P94S/D165A (clone 4.3) (protein)
chain: B13 chain with N102D, D107A, T138K
For B19, which Km LPETG [1] is on record?
Its Km LPETG is 1100 µM.

And the Km GGG-COOH [4]?
The Km GGG-COOH was 1700 ± 400 µM.

B20: D160N/K190E/K196T (clone 4.2) (protein)
chain: B13 chain with S36P, K132E
How did the Km LPETG [1] turn out when B20 was run?
The Km LPETG was 1600 µM.

And the Km GGG-COOH [4]?
The Km GGG-COOH was 1200 ± 200 µM.

B21: srtA D160N (protein)
chain: B13 chain with S36P, T138K
What does the source list for B21?
Km LPETG [1]: 3700 µM; Km GGG-COOH [4]: 330 µM

B22: P94R/D160N/D165A/K190E/K196T pentamutant sortase A (protein)
chain: B13 chain with S36R, D107A, K132E
Which results are given for B22?
KM LPETG against the tetramutant [1]: the kcat and KM LPETG were not altered by more than a factor of 1.3-fold; Km LPETG [1]: 230 µM; Km, LxExG (uM); column 5mut/wt [1]: 208 µM; Km, LxExG (uM); column 5mut/4S [3]: 672 µM; Km, LxExG (uM); column 5mut/2A [2]: 6160 µM; Km GGG against the tetramutant [4]: the Km GGG of this mutant improved by 1.8-fold; Km GGG against wild type srtA [4]: a 20-fold higher Km GGG; Km GGG-COOH [4]: 2900 ± 200 µM; Km, GGG (uM); column 5mut/wt [4]: 2990 µM

B23: P94S/D160N/D165A/K196T (protein)
chain: B13 chain with D107A
With B23 as the protein, how does the Km LPETG [1] read?
The Km LPETG was 170 µM.

What about the “LPETG recognition (Km LPETG) against wild type SrtA” value [1] of the same protein?
Its value is 45-fold improved LPETG (SEQ ID NO: 4) recognition.

And the Km GGG-COOH [4]?
The Km GGG-COOH was 4800 ± 700 µM.
